Source: patent US20240228612A1 (SICHUAN KELUN BIOTECH BIOPHARMACEUTICAL, published 2024)
Numbering of substitutions follows the chain as printed.

T1: human Nectin-4 protein (human, UniProt Q96NY8 32-349)
T1 construct: Purified protein used for coating in ELISA and as analyte in Octet; also called human Nectin-4 antigen
T1 sequence (looked up): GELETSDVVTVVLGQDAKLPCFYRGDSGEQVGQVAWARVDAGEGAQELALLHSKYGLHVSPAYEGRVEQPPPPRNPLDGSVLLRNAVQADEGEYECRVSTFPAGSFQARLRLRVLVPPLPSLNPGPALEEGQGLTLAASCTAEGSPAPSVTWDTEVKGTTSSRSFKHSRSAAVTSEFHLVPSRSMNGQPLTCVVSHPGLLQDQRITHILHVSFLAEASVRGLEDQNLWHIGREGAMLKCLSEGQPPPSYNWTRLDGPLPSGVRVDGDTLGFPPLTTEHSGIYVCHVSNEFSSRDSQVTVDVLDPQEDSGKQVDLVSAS

T2: two IgC domains of human Nectin-4 overexpressed on A549 cells (human, UniProt Q96NY8 148-349, limits assumed)
T2 construct: domain: two IgC domains; also called A549-Nectin-4-IgCC
T2 sequence (looked up): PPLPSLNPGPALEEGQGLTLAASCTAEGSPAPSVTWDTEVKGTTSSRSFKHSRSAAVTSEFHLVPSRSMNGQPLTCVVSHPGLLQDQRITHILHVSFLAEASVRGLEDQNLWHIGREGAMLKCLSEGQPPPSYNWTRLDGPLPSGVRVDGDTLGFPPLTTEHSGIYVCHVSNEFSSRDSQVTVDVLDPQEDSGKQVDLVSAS

T3: human Nectin-4 on cell membrane surface (human, UniProt Q96NY8 32-510)
T3 construct: whole, on cells; also called A549-Nectin-4; T24-Nectin-4
T3 sequence (looked up): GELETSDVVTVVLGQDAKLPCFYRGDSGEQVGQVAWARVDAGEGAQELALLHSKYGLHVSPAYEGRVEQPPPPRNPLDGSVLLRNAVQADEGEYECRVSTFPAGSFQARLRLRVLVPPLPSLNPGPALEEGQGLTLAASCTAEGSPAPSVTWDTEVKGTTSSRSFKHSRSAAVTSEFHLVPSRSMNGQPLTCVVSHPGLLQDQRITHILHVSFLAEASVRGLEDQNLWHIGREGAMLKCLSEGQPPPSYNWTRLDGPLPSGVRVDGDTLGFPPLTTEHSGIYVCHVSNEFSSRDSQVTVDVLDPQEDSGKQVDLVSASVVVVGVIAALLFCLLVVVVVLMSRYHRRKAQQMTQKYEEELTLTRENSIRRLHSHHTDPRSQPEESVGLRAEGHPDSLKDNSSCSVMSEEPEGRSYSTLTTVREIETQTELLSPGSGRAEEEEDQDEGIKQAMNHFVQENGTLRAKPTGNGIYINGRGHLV

B1: anti-human Nectin-4 humanized monoclonal antibody 56HZ (antibody, human IgG1, kappa, V domains shown)
VH: QVQLQESGPGLVKPSQTLSLTCTVSGYFNSITSDYDWHWIRHHPGKGLEWMGYISFSGRTYYNPSLKSRVTISHDTSKNQFSLKLSSVTAADTAVYYCARGNYDGFDYWGQGTLVTVSS
VL: DIVLTQSPATLSLSPGERATLSCRASQNIGTSIHWYQHKPGQSPRLLIKFASESISGIPARFSGSGSGTDFTLTISSLEPEDFAVYYCQQSKSWPTYTFGGGTKVEIKR
notes: Human IgG1 heavy chain constant region, human kappa light chain constant region; expressed in CHO-E cells
B2: anti-human Nectin-4 humanized monoclonal antibody 74HZ (antibody, human IgG1, kappa, V domains shown)
VH: QVQLVQSGAEVKKPGSSVKVSCKASGYTFINYWMNWVRQAPGQGLEWIGMIHPSDSATRLNQSFQGRVTLTVDKSTSTAYMELSSLRSEDTAVYYCARWGNFYTVNAWYYFDYWGQGTLVTVSS
VL: DIVITQSPDSLAVSLGERATINCKSSQTLLNSNTQKNYLAWYQQKPGQSPKLLFYFASTRESGVPDRFSGSGSGTDFTLTISSLQAEDVAVYFCQQHYSTPLTFGQGTKLEIKR
notes: as for B1
B3: anti-human Nectin-4 humanized monoclonal antibody 31HZ (antibody, human IgG1, kappa, V domains shown)
VH: QVQLVQSGAEVKKPGSSVKVSCKASGYTFTDYWMNWVRLAPGQGLEWIGMIHPSDSETRLNQKFQGRVTLTVDKSTSTAYMELSSLRSEDTAVYYCARWDFRIYYAMDYWGQGTLVTVSS
VL: B2 VL with I2V, T28S, S32T, T34S, F54V, Q106G, L110V
notes: as for B1

Key:
human Nectin-4 protein = target: T1, human Nectin-4 protein; experiment: BLI (Octet Fortebio), antibody on ProA sensor, Nectin-4 as analyte, 1:1 global fit
Description: (§1) The dynamic affinity of anti-human Nectin-4 humanized monoclonal antibodies was detected using Octet Fortebio®. The main steps comprised: firstly, the anti-human Nectin-4 humanized monoclonal antibody (concentration of 5 μg/mL) was immobilized on ProA sensor, then subjected to binding reaction with human or cynomolgus monkey Nectin-4 (gradiently diluted to 400 nM, 200 nM, 100 nM, 50 nM, 25 nM, 12.5 nM, 6.25 nM, 0 nM), and the anchored product in the solid phase obtained through fully reaction was subjected to dissociation reaction in PBST buffer. After the completion of the experiment, the results were analyzed by using Data Analysis 11.0 software at 1:1 mode to perform global fitting, thereby obtaining the affinity constant of antibody to antigen.

[1] = target: T4, cynomolgus monkey Nectin-4 protein (cynomolgus monkey); experiment: as above
T4 construct: also called cynomolgus monkey Nectin-4 antigen
Description: as §1

[2] = target: T2, two IgC domains of human Nectin-4 …; experiment: flow cytometry on A549-Nectin-4-IgCC cells
Description: Human Nectin-4 contains one IgV domain and two IgC domains. To determine the binding domain of the anti-human Nectin-4 humanized monoclonal antibodies, an A549 stable cell line A549-Nectin-4-IgV overexpressing Nectin-4 IgV domain, and an A549 stable cell line A549-Nectin-4-IgCC overexpressing two IgC domains of Nectin-4 were constructed, and the binding domains of the antibody to be tested were detected by flow cytometry. The specific steps were as follows: A549-Nectin-4-IgV and A549-Nectin-4-IgCC cells were digested, resuspended by centrifugation, washed twice with PBS; the cells were resuspended with PBS (containing 1% BSA), and spread at 300,000 cells/well into a 96-well tip-bottom plate, 50 μl per well; 50 μL of the antibody to be tested at a final concentration of 40 μg/mL was added to each well, and Human IgG was used as a negative control; after being mixed well, the resulting mixture was reacted in the dark at 4° C. for 1 hour; washing was performed 3 times with PBS, FITC-labeled anti-human Fc secondary antibody (brand: BioLegend, product number: 409322) was added, incubated at 4° C. for 0.5 hours in the dark; washing was performed 3 times with PBS, and detection was carried out using a flow cytometer (flow cytometer brand: Beckman, model: Cytoflex).

[3] = target: T3, human Nectin-4 on cell membrane surface; experiment: flow cytometry on T47D cells
Description: The specific steps were as follows: T47D cells were digested, resuspended by centrifugation, and washed twice with PBS; the cells were resuspended in PBS (containing 1% BSA), and spread into a 96-well tip-bottom plate at 3×10⁵ cells/well, with a volume of 50 μl per well; 50 μL of the antibody to be tested was added to each well, starting at a final concentration of […], 4-fold gradient dilution, a total of 10 concentration points; Human IgG was used as a negative control; after being mixed well, the resulting mixture was reacted in the dark at 4° C. for 1 hour; washing was performed 3 times with PBS, FITC-labeled anti-human Fc secondary antibody (brand: BioLegend, product number: 409322) was added, incubated at 4° C. for 0.5 hours in the dark; washing was performed 3 times with PBS, and detection was carried out using a flow cytometer (flow cytometer brand: Beckman, model: Cytoflex).

Binder | Kd (human Nectin-4 protein) | Kd [1] | binding result [2] | EC50 [3]
B1 | 19.6 nM | 18.4 nM | no binding | 
B2 | 12.1 nM | 9.54 nM | no binding | 0.0223 µg/mL
B3 | 22.5 nM | 14.5 nM | no binding | 0.0123 µg/mL
